Results from the supplement of paper PMC9112550, “Optimization of the antimicrobial peptide Bac7 by deep mutational scanning” (BMC Biology, 2022).

System: Escherichia coli TOP10
Experiment: shrunken log2 fold change of peptide-encoding DNA abundance (4.5 h post-induction vs induction); higher = less antimicrobial activity (less host growth inhibition)
Settings: time post-induction: 4.5 h; library: site-saturation at positions 5, 18, 19, 20
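Also: peptides expressed intracellularly from a pBAD plasmid library in pooled LB shake-flask culture, induced with 0.3% L-arabinose, DNA abundance read by NGS, three biological replicates, DESeq2 with apeglm shrinkage.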

Sequence | shrunken log2 fold change
RRIRVRPPRLPRPRPRPGSWPRP | 0.463
RRIRRRPPRLPRPRPRPLPFPRP | -0.344
RRIRVRPPRLPRPRPRPCYRPRP | -0.00925
RRIRVRPPRLPRPRPRPIHIPRP | -1.11
RRIRARPPRLPRPRPRPVQGPRP | 0.47
RRIRKRPPRLPRPRPRPNDIPRP | 0.0543
RRIRNRPPRLPRPRPRPLMTPRP | 0.0149
RRIRFRPPRLPRPRPRPIHFPRP | -0.246
RRIRQRPPRLPRPRPRPSCWPRP | 0.188
RRIRIRPPRLPRPRPRPDTCPRP | 0.0578
RRIRDRPPRLPRPRPRPSCLPRP | -0.0009
RRIRWRPPRLPRPRPRPNVVPRP | -0.144
RRIRWRPPRLPRPRPRPDNDPRP | -0.0628
RRIRCRPPRLPRPRPRPHKHPRP | -0.58
RRIRARPPRLPRPRPRPCWQPRP | 0.096
RRIRQRPPRLPRPRPRPTAEPRP | 0.363
RRIRERPPRLPRPRPRPGMGPRP | -0.0461
RRIRFRPPRLPRPRPRPYYCPRP | -0.74
RRIRQRPPRLPRPRPRPTYDPRP | -0.338
RRIRYRPPRLPRPRPRPWPAPRP | 0.00297
RRIRSRPPRLPRPRPRPFGFPRP | -0.137
RRIRVRPPRLPRPRPRPINNPRP | -0.684
RRIRWRPPRLPRPRPRPVDTPRP | 0.00157
RRIRDRPPRLPRPRPRPCILPRP | 1.16
RRIRDRPPRLPRPRPRPIRCPRP | -0.0116

Sequence | shrunken log2 fold change
RRIRQRPPRLPRPRPRPMNNPRP | -0.2
RRIRSRPPRLPRPRPRPECPPRP | -0.0934
RRIRNRPPRLPRPRPRPKGYPRP | -0.0233
RRIRARPPRLPRPRPRPHLVPRP | 0.0104
RRIRFRPPRLPRPRPRPKEPPRP | -0.135
RRIRERPPRLPRPRPRPWKTPRP | 0.0324
RRIRNRPPRLPRPRPRPHFPPRP | -0.186
RRIRKRPPRLPRPRPRPVNRPRP | 0.0352
RRIRIRPPRLPRPRPRPPKQPRP | -0.158
RRIRERPPRLPRPRPRPSIIPRP | -0.188
RRIRDRPPRLPRPRPRPQSYPRP | -0.495
RRIRKRPPRLPRPRPRPDWKPRP | -0.0149
RRIRKRPPRLPRPRPRPWKFPRP | 0.0297
RRIRYRPPRLPRPRPRPNNSPRP | -0.52
RRIRFRPPRLPRPRPRPPGKPRP | 0.2
RRIRGRPPRLPRPRPRPNMTPRP | 1.63
RRIRARPPRLPRPRPRPINDPRP | 0.00287
RRIRARPPRLPRPRPRPNQYPRP | -0.801
RRIRVRPPRLPRPRPRPFDLPRP | -0.24
RRIRSRPPRLPRPRPRPVICPRP | -0.0365
RRIRFRPPRLPRPRPRPQAGPRP | -0.0266
RRIRARPPRLPRPRPRPWFFPRP | 0.089
RRIRLRPPRLPRPRPRPCWNPRP | -0.291
RRIRWRPPRLPRPRPRPRLKPRP | 0.689
RRIRFRPPRLPRPRPRPHVMPRP | -0.288

Sequence | shrunken log2 fold change
RRIRHRPPRLPRPRPRPTFQPRP | -0.067
RRIRVRPPRLPRPRPRPVDEPRP | 0.144
RRIRWRPPRLPRPRPRPSKNPRP | -0.158
RRIRIRPPRLPRPRPRPLYAPRP | -0.651
RRIRVRPPRLPRPRPRPTVVPRP | 0.0028
RRIRARPPRLPRPRPRPSSYPRP | -0.342
RRIRMRPPRLPRPRPRPEQWPRP | 0.184
RRIRQRPPRLPRPRPRPWIPPRP | 0.0265
RRIRSRPPRLPRPRPRPYRLPRP | -0.279
RRIRWRPPRLPRPRPRPVMCPRP | -0.0922
RRIRERPPRLPRPRPRPMKYPRP | 0.0847
RRIRRRPPRLPRPRPRPCGYPRP | 0.0658
RRIRHRPPRLPRPRPRPEIWPRP | -0.0396
RRIRSRPPRLPRPRPRPCWDPRP | -0.189
RRIRTRPPRLPRPRPRPDHLPRP | 0.0101
RRIRKRPPRLPRPRPRPMMAPRP | 0.255
RRIRDRPPRLPRPRPRPGSDPRP | 0.461
RRIRERPPRLPRPRPRPETQPRP | 0.0866
RRIRYRPPRLPRPRPRPDWSPRP | -0.522
RRIRRRPPRLPRPRPRPMQVPRP | -0.198
RRIRKRPPRLPRPRPRPAPHPRP | 0.79
RRIRWRPPRLPRPRPRPMVHPRP | 0.0275
RRIRWRPPRLPRPRPRPITPPRP | 0.145
RRIRYRPPRLPRPRPRPHYTPRP | -0.936
RRIRSRPPRLPRPRPRPNIEPRP | -0.264

Sequence | shrunken log2 fold change
RRIRGRPPRLPRPRPRPYYRPRP | -0.0655
RRIRERPPRLPRPRPRPGDCPRP | -0.0777
RRIRYRPPRLPRPRPRPKFFPRP | 0.131
RRIRMRPPRLPRPRPRPECTPRP | 2.91
RRIRARPPRLPRPRPRPYPAPRP | -0.146
RRIRERPPRLPRPRPRPYVMPRP | -0.401
RRIRHRPPRLPRPRPRPHDLPRP | 0.0509
RRIRYRPPRLPRPRPRPIDQPRP | -0.0356
RRIRARPPRLPRPRPRPKSRPRP | 0.474
RRIRSRPPRLPRPRPRPDPKPRP | -0.00687
RRIRFRPPRLPRPRPRPLTPPRP | 0.0478
RRIRWRPPRLPRPRPRPSGAPRP | 0.527
RRIRSRPPRLPRPRPRPSHSPRP | -0.706
RRIRERPPRLPRPRPRPSMYPRP | -0.516
RRIRCRPPRLPRPRPRPPHFPRP | 0.872
RRIRSRPPRLPRPRPRPFLWPRP | -0.0904
RRIRHRPPRLPRPRPRPMGQPRP | -0.239
RRIRERPPRLPRPRPRPRIEPRP | -0.0877
RRIRMRPPRLPRPRPRPPYTPRP | -0.0678
RRIRNRPPRLPRPRPRPSSIPRP | -0.0475
RRIRQRPPRLPRPRPRPKDIPRP | 0.0266
RRIRVRPPRLPRPRPRPKNNPRP | -0.406
RRIRPRPPRLPRPRPRPDWEPRP | 0.19
RRIRFRPPRLPRPRPRPWWWPRP | 0.0474
RRIRVRPPRLPRPRPRPHGLPRP | 0.0861

Sequence | shrunken log2 fold change
RRIRKRPPRLPRPRPRPVKLPRP | -0.0408
RRIRLRPPRLPRPRPRPEWHPRP | 0.222
RRIRVRPPRLPRPRPRPHCSPRP | -0.0738
RRIRQRPPRLPRPRPRPDFPPRP | 0.065
RRIRERPPRLPRPRPRPYDWPRP | -0.0444
RRIRDRPPRLPRPRPRPHAQPRP | -0.0623
RRIRARPPRLPRPRPRPRSDPRP | 0.257
RRIRRRPPRLPRPRPRPFCNPRP | -0.259
RRIRTRPPRLPRPRPRPQCHPRP | -0.0436
RRIRTRPPRLPRPRPRPHTKPRP | -0.0963
RRIRTRPPRLPRPRPRPTIRPRP | -0.0471
RRIRHRPPRLPRPRPRPQLAPRP | 0.0733
RRIRKRPPRLPRPRPRPTMRPRP | 1.02
RRIRPRPPRLPRPRPRPDGGPRP | -0.129
RRIRSRPPRLPRPRPRPWNQPRP | 0.0379
RRIRYRPPRLPRPRPRPHMAPRP | -0.155
RRIRCRPPRLPRPRPRPGENPRP | 0.0862
RRIRDRPPRLPRPRPRPKEYPRP | -0.0963
RRIRYRPPRLPRPRPRPPIAPRP | 0.00572
RRIRKRPPRLPRPRPRPSLHPRP | 0.0624
RRIRIRPPRLPRPRPRPRSKPRP | -0.251
RRIRCRPPRLPRPRPRPCDYPRP | -0.0812
RRIRGRPPRLPRPRPRPSKTPRP | 0.558
RRIRDRPPRLPRPRPRPCMAPRP | 0.203
RRIRNRPPRLPRPRPRPFDDPRP | -0.00192

Sequence | shrunken log2 fold change
RRIRVRPPRLPRPRPRPPKTPRP | 0.152
RRIRDRPPRLPRPRPRPANIPRP | -0.114
RRIRERPPRLPRPRPRPWFQPRP | -0.0883
RRIRGRPPRLPRPRPRPVERPRP | 0.5
RRIRSRPPRLPRPRPRPLHEPRP | 0.339
RRIRPRPPRLPRPRPRPAQKPRP | 0.273
RRIRTRPPRLPRPRPRPEEAPRP | -0.0948
RRIRLRPPRLPRPRPRPKFEPRP | 0.0662
RRIRVRPPRLPRPRPRPFHWPRP | -0.0122
RRIRIRPPRLPRPRPRPRGIPRP | -0.0459
RRIRDRPPRLPRPRPRPVECPRP | 0.018
RRIRDRPPRLPRPRPRPPVKPRP | 0.421
RRIRKRPPRLPRPRPRPHNEPRP | 0.323
RRIRMRPPRLPRPRPRPMGRPRP | -0.0209
RRIRCRPPRLPRPRPRPGNGPRP | 0.217
RRIRIRPPRLPRPRPRPPQTPRP | 0.0803
RRIRLRPPRLPRPRPRPYFTPRP | -0.468
RRIRVRPPRLPRPRPRPARCPRP | 0.205
RRIRTRPPRLPRPRPRPVEGPRP | -0.194
RRIRRRPPRLPRPRPRPRHLPRP | 0.197
RRIRMRPPRLPRPRPRPWTDPRP | -0.035
RRIRYRPPRLPRPRPRPDYKPRP | -0.136
RRIRFRPPRLPRPRPRPIVYPRP | -0.181
RRIRARPPRLPRPRPRPVMDPRP | 0.671
RRIRTRPPRLPRPRPRPQESPRP | -0.0142
